The values below come from publication doi:10.1101/2020.05.22.111005 (bioRxiv, 2020).

The target in experiment [1] is T1, prefusion-stabilized trimeric SARS-CoV-2 S protein ectodomain (S2Pecto) (SARS-CoV-2, Wuhan-Hu-1 reference spike, UniProt P0DTC2, stabilised). Put plainly: ELISA. (In an ELISA, binding on a coated surface is turned into a signal by an enzyme label.)
The target of experiment [2] is SARS-CoV-2 S receptor-binding domain (SRBD), monomeric, wild type (SARS-CoV-2, Wuhan-Hu-1 reference spike, UniProt P0DTC2). Put plainly: BLI. Background: BLI is a label-free optical method that tracks binding on a fibre tip over time.
For experiment [3], the target named is T1, prefusion-stabilized trimeric …. Put plainly: negative-stain electron microscopy.

B1: COV2-2196 (human mAb) (antibody, V domains shown)
VH: QMQLVQSGPEVKKPGTSVKVSCKASGFTFMSSAVQWVRQARGQRLEWIGWIVIGSGNTNYAQKFQERVTITRDMSTSTAYMELSSLRSEDTAVYYCAAPYCSSISCNDGFDIWGQGTMVTVSS
VL: not shown
Take B1: the binding result in experiment [1] and in experiment [2] was “binds” throughout.

B2: Fab COV2-2196 (Fab, V domains shown)
VH: QMQLVQSGPEVKKPGTSVKVSCKASGFTFMSSAVQWVRQARGQRLEWIGWIVIGSGNTNYAQKFQERVTITRDMSTSTAYMELSSLRSEDTAVYYCAAPYCSSISCNDGFDIWGQGTMVTVSS
VL: not shown
B2: the binding result in experiment [3] was “binds”.

B3: COV2-2165 (human mAb) (antibody, V domains shown)
VH: EVQLVESGGGLVQPGGSLRLSCAASGLTVRSNYMTWVRQTPGKGLEWVSVIYSGGSTFYADSVKGRFTISRDNSKNTVYLQMNSLRAEDTAVYYCARDLVTYGLDVWGQGTTVTVSS
VL: DIQLTQSPSFLSASVGDRVTITCRASQGISNYLAWYQQKPGTAPNLLIYAASTLQSGVPSRFSGSGSGTEFTLTISSLQPEDFATYYCQLLNSHPLTFGQGTRLEIK
Regarding B3, in experiment [2], the binding result is reported as “binds”.

B4: Fab COV2-2165 (Fab, V domains shown)
VH: EVQLVESGGGLVQPGGSLRLSCAASGLTVRSNYMTWVRQTPGKGLEWVSVIYSGGSTFYADSVKGRFTISRDNSKNTVYLQMNSLRAEDTAVYYCARDLVTYGLDVWGQGTTVTVSS
VL: DIQLTQSPSFLSASVGDRVTITCRASQGISNYLAWYQQKPGTAPNLLIYAASTLQSGVPSRFSGSGSGTEFTLTISSLQPEDFATYYCQLLNSHPLTFGQGTRLEIK
Regarding B4, the binding result in experiment [3] is given as “binds”.
